Results as given in paper PMC11751051 (Frontiers in Molecular Biosciences, 2025).

Assays:
GFP-OhyA = biological target: T1, GFP-OhyA (Staphylococcus aureus, UniProt Q2G1P3, M1A); test: biochemical
T1 construct: gene SAOUHSC_00061

[1] = biological target: GFP-OhyA (green fluorescent protein-oleate hydratase chimeric protein) (Staphylococcus aureus); test: SEC-MALS; Superose 6 Increase 10/300 GL; 20 mM Tris, 200 mM NaCl, pH 7.6; 100 uL of GFP-OhyA (2 mg/mL) injected at 0.5 mL/min, 25 °C

Molecule	Kd (GFP-OhyA)	percent dimer [1]	stoichiometry N [1]
CCCCCCCC/C=C\CCCCCCCC(=O)OC[C@H](COP(=O)(O)OCC(O)CO)OC(=O)CCCCCCC/C=C\CCCCCCCC (stereo partly drawn) [DOPG]	79.9 nM	–	–
GFP-OhyA (green fluorescent protein-oleate hydratase chimeric protein) (enzyme)	–	80.6%	2
